The results in this text go back to patent US20130129714A1 (UAB RESEARCH FOUNDATION, published 2013).

Bridges are numbered along the chain shown (N, C = ends). Where no end group is shown, it is not given here.

In experiment [1] the target is T1, human Tamm-Horsfall protein (human, UniProt P07911 25-587). Description: competitive ELISA (FIG. 7). An excerpt:
Mutation of the CDR3 sequence to disrupt the loop structure by substituting amino acid residues with phenyalanine confirmed that the secondary structure was an important determinant of binding (FIG. 6). The inhibitory capability of cyclized experimental ([…] (SEQ ID NO:32)) and control ([…] (SEQ ID NO:33)) peptides were then compared in a competitive ELISA assay. The experimental peptide served as a very efficient inhibitor of the binding interactions between the human Tamm-Horsfall protein and six different human immunoglobulin light chains (FIG. 7).
For orientation: ELISA stands for enzyme-linked immunosorbent assay.

The target of experiment [2] is T1, human Tamm-Horsfall protein. Briefly: competitive ELISA; light chains bound in the wells, Tamm-Horsfall protein in solution, linear peptide as inhibitor. An excerpt:
(§1) Peptides known to react with the Tamm-Horsfall protein in the yeast two-hybrid assay were synthesized, cyclized, and used as inhibitors in a competitive ELISA experiment. The peptides were cyclized by adding cysteine residues to the amino and carboxyl-terminal portions of the peptides and generating an intramolecular disulfide bridge (FIG. 4). Cyclization facilitates formation of the loop structure in solution. Both the linear and cyclized peptides inhibited the binding of the Tamm-Horsfall protein to the immunoglobulin light chains bound in the wells of the microtiter plate, but the efficiency of inhibition was increased by cyclization of the peptide inhibitor.

The target is the same in experiment [3]. Description: competitive ELISA; light chains bound in the wells, Tamm-Horsfall protein in solution, cyclized peptide as inhibitor.
From the text: as §1

For experiment [4] the target is unchanged. Briefly: competition studies for binding to Tamm-Horsfall protein.

B1: cyclized peptide (CLSADSSGSYLYVC) (SEQ ID NO:32) (peptide)
peptide: CLSADSSGSYLYVC
modifications: disulfide 1-14
notes: also called cyclized experimental peptide; experimental peptide
B1: the binding result in experiment [1] is “binds”.
One may read the IC50 as the concentration at which inhibition is half-maximal. Lower therefore signals inhibition by little substance. In turn, QSYDNTLSGSYVF (also called uncyclized peptide 1) [peptide 1 (QSYDNTLSGSYVF (SEQ ID NO:1)), linear] registered an IC50 in experiment [2] of 55 nM. That is a double-digit nanomolar value.

B2: peptide 2 (LSADSSGSYLYVF (SEQ ID NO:2)), cyclized (peptide)
peptide: CLSADSSGSYLYVFC
modifications: disulfide 1-15
notes: Built from the words 'cyclized by adding cysteine residues to the amino and carboxyl-terminal portions of the peptides'; also called cyclized peptide 2
Molecule B2 displayed an IC50 in experiment [3] of 24 nM.
In the case of MQGTHWPPLT (also called SSH23 CDR3 peptide) [synthetic peptide (MQGTHWPPLT (SEQ ID NO:3)) identical to the CDR3 region of SSH23], in experiment [4], the binding result is on record as “binds”.
LSADSSGSYLYVF (also called uncyclized peptide 2) [peptide 2 (LSADSSGSYLYVF (SEQ ID NO:2)), linear] yielded an IC50 in experiment [2] of 90.9 nM.
